Results taken from patent US20090312252A1, “Antimicrobial Activity in Variants of Lacritin” (priority 2006, published 2009).
Where no end group is shown, it is not given here.

Tests used:
E. coli (ATCC #10536) = type: cell-based; settings: colony forming unit assay, phosphate buffer, 37°C; by extrapolation of concentration curves
Experimental: (§1) Antimicrobial Assays. The antimicrobial activities were tested using a colony forming unit assay. E. coli (ATCC #10536) was grown in LB medium at 37° C. to an OD600 of 0.5. The cells were washed 3 times in phosphate buffer (pH 7.2) and resuspended in 1 ml of the same buffer. The cells were then diluted 1:100 using two 10 fold serial dilutions. Following dilutions, 50 μl of cells were incubated with 100 μl of sample protein and 350 μl of phosphate buffer at 37° C. In place of sample protein, 100 μl of 10 mM phosphate buffered saline (pH 7.4) was used as the control sample. Following incubation, the cells were diluted 1:10 before plating 100 μl-200 μl in quadruplicates. The plates were incubated overnight at 37° C. and colony forming units were counted. The percentage of cell death was expressed using the following equation, [1-(cells surviving peptide)/(average colonies counted from PBS control)]×100%. The LC50 is defined as the lethal concentration of peptide required to kill 50 percent of the present bacteria and was determined for each Lacritin variant by extrapolation of concentration curves.
Lethal concentrations (μg/ml) of lacritin constructs required to kill 50 percent of E. coli in the antimicrobial assay. Lacritin is full length mature lacritin without signal peptide. N-XX denotes the number of amino acids removed from the N-terminal of mature lacritin and C-XX denotes the number of amino acids removed from the C-terminal of mature lacritin.

Pseudomonas aeruginosa = experiment: Colony forming unit antimicrobial assay against pathogenic bacteria (Table 3); type: cell-based; settings: 10 mM phosphate buffer, 3 hours
Experimental: as §1
(§2) Purified lacritin variant proteins at the concentrations shown were incubated with selected pathogenic bacteria in 10 mM phosphate buffer for 3 hours as described in the antimicrobial assay. The total number of colonies were counted and the percent cell death determined using [1-(colonies surviving peptide incubation)/(colony count from PBS control)]×100. N-XX denotes the number of amino acids removed from the N-terminal of mature lacritin.

Staphylococcus aureus = experiment: as above; type: cell-based; settings: 26.3 μg/ml; 10 mM phosphate buffer, 3 hours
Experimental: as §1, §2

E. coli = experiment: Antimicrobial activity assay, colony forming units after incubation with E. coli (Example 2, FIGS. 4 and 5); type: cell-based; settings: for % of the bacteria killed: four hours incubation; for CFU as % of the control / average colony forming units: four hours incubation at 37°C
Experimental: Purified recombinant lacritin variant proteins were assayed for antimicrobial activity by standard methods that involves an incubation period with actively growing bacteria and the protein of interest followed by plating on agar plates supplemented with growth media. The agar plates are incubated overnight and individual colonies are counted and expressed as Colony Forming Units (CFUs). The number of CFUs can be compared to the same bacteria incubated without protein.
E. coli at exponential growth (OD600=0.5) were washed twice in Phosphate Buffer (PB) diluted to a concentration of 1×10^6 cells/ml in PB and incubated with PB (no protein) or test proteins at 37° C. Samples were diluted and plated in triplicate on LB plates after four hours of incubation. Plates were grown at 37° C. overnight and counted. Colony counts were averaged and plotted as CFU/ml×10^3. The incubation volume was 0.5 ml at 25 mM NaCl.
C-25 was tested at a concentration of 53 μg/ml and N-71 was tested at various concentrations in μg/ml as shown in parentheses. pLAC is full length recombinant mature lacritin, and was tested at a concentration of 46 μg/ml. Bacteria incubated with buffer alone (the control) produced an average of 77×10^3 CFU/ml. Incubation with the lacritin variant C-25 produced an average of 79×10^3 or 103% of the control. […] The full-length recombinant lacritin protein (PLAC) produced an average of 38×10^3 CFU/ml or 49% of the control. The variant protein N-71 produced a concentration dependent antimicrobial activity that was less than 1% of the control at a concentration of 28 μg/ml.
The variant lacritin proteins were tested at the concentrations shown in parentheses in μg/ml. Bacteria incubated with buffer alone (the PB control) produced an average of 161×10^3 CFU/ml. Incubation with the lacritin variant N-24 produced an average of 108×10^3 or […] of the control. […] The variant protein N-35 produced an average of 25×10^3 CFU/ml or 16% of the control and the variant N-45 produced an average of 42×10^3 CFU/ml or 26% of the control. These variants are active in antimicrobial activity killing 84% and 74% respectively of the bacteria under the conditions tested. The variant N-55 produced an average of 2×10^3 CPU/ml or 0.01% of the control, the variant N-65 produced an average of 6×10^3 CFU/ml or 0.04% of the control, and the variant N-71 produced an average of 1×10^3 CFU/ml or 0.01% of the control.

E. coli ML-35 = experiment: Inner membrane permeabilization, ONPG conversion by cytoplasmic β-galactosidase (FIG. 11); type: cell-based; settings: 30 μg/ml; room temperature, 18 hours
Experimental: Inner Membrane Permeabilization. To examine the affect of Lacritin constructs on the inner membrane of gram negative bacteria, an enzymatic assay was conducted using a strain of permease-deficient E. coli, designated E. coli ML-35 (ATCC #43827) which also constitutively produces cytoplasmic βeta-galactosidase. E. coli ML-35 were grown in LB medium for 20 hours at 37° C. as a saturated overnight and then diluted with LB to an absorbance OD600 of 0.5. The cells were washed 3 times in 10 mM sodium phosphate buffer-10 mM NaCl (pH 7.2) and resuspended in 1 ml of the same buffer. The cells were then diluted 1:100 in 10 mM sodium phosphate buffer using two serial 10-fold dilutions. 70 μl of phosphate buffer, 30 μl of 30 mM βeta-galactosidase substrate ONPG (o-nitrophenyl-β-D-galactopyranoside) in 20 mM sodium phosphate buffer, 100 μl of cells in 10 mM sodium phosphate buffer and 50 μl of peptide sample were added to microtiter plate wells in duplicate. The production of ONP (o-nitrophenyl) from ONPG was measured over time using a spectrophotometer set at a wavelength of 415 nm.
Mature Lacritin (pLac) and various constructs of Lacritin were incubated with permease-deficient E. coli ML-35 at room temperature for 18 hours. The conversion of ONPG (o-nitrophenyl-β-D-galactopyranoside) to ONP (o-nitrophenyl) by cytoplasmic β-galactosidase was measured by a spectrophotometer at 415 nm. […]

[1] = tested on: human salivary gland cells; settings: recombinant lacritin produced in bacteria; cultured human salivary gland cells; cited from earlier work
[2] = topical application to the eyes of rabbits; cited from earlier work
[3] = tested on: Staphylococcus epidermidis; experiment: Colony forming unit antimicrobial assay against pathogenic bacteria (Table 3); type: cell-based; settings: 37.6 μg/ml; 10 mM phosphate buffer, 3 hours
Experimental: as §1, §2

[4] = FIG. 5, concentrations only shown in the figure
[5] = FIG. 5, concentrations only shown in the figure, PB control 161×10^3 CFU/ml

N-72: mature lacritin with 72 amino acids removed from the N-terminal (ILLTEQALAKAGKGMHGGVPGGKQFIENGSEFAQKLLKKFSLLKPWA; UniProt Q9GZZ8 92-138, looked up, fragment) [Construct N-72]
LC50 (lethal concentration required to kill 50 percent of E. coli) (E. coli (ATCC #10536)): 7.5 µg/mL

MSILLTEQALAKAGKGMHGGVPGGKQFIENGSEFAQKLLKKFSLLKPWA [Construct N-71]
LC50 (lethal concentration required to kill 50 percent of E. coli) (E. coli (ATCC #10536)): 8.0 µg/mL

N-80: mature lacritin with 80 amino acids removed from the N-terminal (AKAGKGMHGGVPGGKQFIENGSEFAQKLLKKFSLLKPWA; UniProt Q9GZZ8 100-138, looked up, fragment) [Construct N-80]
LC50 (lethal concentration required to kill 50 percent of E. coli) (E. coli (ATCC #10536)): Not Active

MKSIVEKSILLTEQALAKAGKGMHGGVPGGKQFIENGSEFAQKLLKKFSLLKPWA [Construct N-65]
LC50 (lethal concentration required to kill 50 percent of E. coli) (E. coli (ATCC #10536)): 5.5 µg/mL

N-73: mature lacritin with 73 amino acids removed from the N-terminal (LLTEQALAKAGKGMHGGVPGGKQFIENGSEFAQKLLKKFSLLKPWA; UniProt Q9GZZ8 93-138, looked up, fragment) [Construct N-73]
LC50 (lethal concentration required to kill 50 percent of E. coli) (E. coli (ATCC #10536)): 8.0 µg/mL

B1: N-45: mature lacritin with 45 amino acids removed from the N-terminal (protein, listed as Homo sapiens)
chain: MAAAVQGTAKVTSSRQELNPLKSIVEKSILLTEQALAKAGKGMHGGVPGGKQFIENGSEFAQKLLKKFSLLKPWA
Cell Death % (Pseudomonas aeruginosa; 23.0 μg/ml): 99% | Cell Death % (Staphylococcus aureus): 58% | % of the bacteria killed (E. coli; [4]): 74% | CFU as % of the control (E. coli; [5]): 26% | average colony forming units (E. coli; [5]): 42×10^3 CFU/ml | LC50 (lethal concentration required to kill 50 percent of E. coli) (E. coli (ATCC #10536)): 1.0 µg/mL

B2: Lacritin: full length recombinant mature human lacritin without signal peptide, 119 amino acids, SEQ ID NO:27 (protein, listed as Homo sapiens)
chain: EDASSDSTGADPAQEAGTSKPNEEISGPAEPASPPETTTTAQETSAAAVQGTAKVTSSRQELNPLKSIVEKSILLTEQALAKAGKGMHGGVPGGKQFIENGSEFAQKLLKKFSLLKPWA
inner membrane permeabilization (ONPG to ONP conversion, 415 nm) (E. coli ML-35): damage the cell membrane | cell growth [1]: promotes new cell growth | average colony forming units (E. coli; FIG. 4, 46 μg/ml, 25 mM NaCl, buffer control 77×10^3 CFU/ml): 38×10^3 CFU/ml | CFU as % of the control (E. coli; FIG. 4, 46 μg/ml, buffer control 77×10^3 CFU/ml): 49% | LC50 (lethal concentration required to kill 50 percent of E. coli) (E. coli (ATCC #10536)): 11.0 µg/mL | tear production [2]: increases tear production

B3: N-35: mature lacritin with 35 amino acids removed from the N-terminal (protein, listed as Homo sapiens)
chain: METTTTAQETSAAAVQGTAKVTSSRQELNPLKSIVEKSILLTEQALAKAGKGMHGGVPGGKQFIENGSEFAQKLLKKFSLLKPWA
Cell Death % [3]: 69% | Cell Death % (Pseudomonas aeruginosa; 36.8 μg/ml): 95% | % of the bacteria killed (E. coli; [4]): 84% | CFU as % of the control (E. coli; [5]): 16% | average colony forming units (E. coli; [5]): 25×10^3 CFU/ml | LC50 (lethal concentration required to kill 50 percent of E. coli) (E. coli (ATCC #10536)): 1.5 µg/mL
